Data published in patent US20250388669A1 (published 2025).

Experiments:
CD137 = molecular target: T1, CD137 (human, UniProt Q07011 24-186); experiment: CD137 binding by FCM or ELISA
T1 construct: Reporter assays used GS-H2-huCD137 cells expressing human CD137; also called 4-1BB/CD137; huCD137

PD-1 = molecular target: T2, PD-1 (human, UniProt Q15116 25-167, limits assumed); experiment: FCM or ELISA
T2 construct: The reporter assay used Jurkat T cells expressing human PD-1

B7H3 = molecular target: T3, B7H3 (human, UniProt Q5ZPR3 29-466, limits assumed); experiment: FCM or ELISA
T3 construct: Tumor associated antigen; also called huB7H3
T3 sequence (looked up): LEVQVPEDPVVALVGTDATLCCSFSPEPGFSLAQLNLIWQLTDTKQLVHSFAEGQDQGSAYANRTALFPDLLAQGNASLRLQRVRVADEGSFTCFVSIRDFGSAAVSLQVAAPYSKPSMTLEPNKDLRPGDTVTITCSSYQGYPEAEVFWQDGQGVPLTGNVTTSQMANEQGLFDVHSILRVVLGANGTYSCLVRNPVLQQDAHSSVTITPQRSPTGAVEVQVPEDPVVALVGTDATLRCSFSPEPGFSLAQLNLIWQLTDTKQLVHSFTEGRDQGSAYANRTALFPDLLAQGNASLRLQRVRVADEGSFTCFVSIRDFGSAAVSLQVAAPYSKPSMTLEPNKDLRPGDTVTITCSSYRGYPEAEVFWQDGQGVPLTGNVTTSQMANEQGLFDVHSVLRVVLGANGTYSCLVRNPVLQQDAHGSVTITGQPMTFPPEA

T2 sequence (Q15116 25-167 limits assumed): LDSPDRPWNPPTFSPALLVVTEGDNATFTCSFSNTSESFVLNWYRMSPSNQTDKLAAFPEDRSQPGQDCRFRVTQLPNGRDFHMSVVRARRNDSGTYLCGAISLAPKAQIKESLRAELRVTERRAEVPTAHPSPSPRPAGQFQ

B1: Ly2326 (bispecific antibody, human IgG1, kappa)
chain 1: QVQLQQSGAELVRPGSSVKISCKASGYAFSSYWMNWVKQRPGQGLEWIGQIWPGDGDTNYNGKFKGKATLTADESSSTAYMQLSSLASEDSAVYFCARRETTTVGRYYYAMDYWGQGTTVTVSSASTKGPSVFPLAPSSKSTSGGTAALGCLVKDYFPEPVTVSWNSGALTSGVHTFPAVLQSSGLYSLSSVVTVPSSSLGTQTYICNVNHKPSNTKVDKKVEPKSCDKTHTCPPCPAPEAAGPSVFLFPPKPKDTLMISRTPEVTCVVVDVSHEDPEVKFNWYVDGVEVHNAKTKPREEQYNSTYRVVSVLTVLHQDWLNGKEYKCKVSNKALPAPIEKTISKAKGQPREPQVYTLPPSREEMTKNQVSLWCLVKGFYPSDIAVEWESNGQPENNYKTTPPVLDSDGSFFLYSKLTVDKSRWQQGNVFSCSVMHEALHNHYTQKSLSLSPGGGGGSGGGGSGGGGSGGGGSQVQLVQSGAEVKKPGASVKVSCKASGYTFAGFEMHWVRQAPGQGLEWMGAIDPKTGGTDYNQKFKDRVTMTRDTSISTAYMELSRLRSDDTAVYYCARDLGYFDVWGQGTLVTVSS
chain 2: QVQLQQSGAELVRPGSSVKISCKASGYAFSSYWMNWVKQRPGQGLEWIGQIWPGDGDTNYNGKFKGKATLTADESSSTAYMQLSSLASEDSAVYFCARRETTTVGRYYYAMDYWGQGTTVTVSSASTKGPSVFPLAPSSKSTSGGTAALGCLVKDYFPEPVTVSWNSGALTSGVHTFPAVLQSSGLYSLSSVVTVPSSSLGTQTYICNVNHKPSNTKVDKKVEPKSCDKTHTCPPCPAPEAAGPSVFLFPPKPKDTLMISRTPEVTCVVVDVSHEDPEVKFNWYVDGVEVHNAKTKPREEQYNSTYRVVSVLTVLHQDWLNGKEYKCKVSNKALPAPIEKTISKAKGQPREPQVYTLPPSREEMTKNQVSLSCAVKGFYPSDIAVEWESNGQPENNYKTTPPVLDSDGSFFLVSKLTVDKSRWQQGNVFSCSVMHEALHNRFTQKSLSLSPGGGGGSGGGGSGGGGSGGGGSDIQMTQSPSSLSASVGDRVTITCRASQDIRSNLNWYQQKPGGAVKLLIYYTSRLHSGVPSRFSGSGSGTDYTLTISSLQPEDFATYFCQQSEKLPRTFGGGTKVEIR
light: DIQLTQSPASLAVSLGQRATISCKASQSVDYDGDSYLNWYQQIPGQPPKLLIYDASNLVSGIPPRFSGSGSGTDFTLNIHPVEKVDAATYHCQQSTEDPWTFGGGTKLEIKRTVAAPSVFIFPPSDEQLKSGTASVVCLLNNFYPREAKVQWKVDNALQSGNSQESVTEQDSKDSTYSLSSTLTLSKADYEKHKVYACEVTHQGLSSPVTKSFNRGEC
notes: CD19/CD137: two CD19 Fabs, terminal CD137 Fv
Q: Does B1 bind (CD137)?
A: binds

B2: Ly2415 (bispecific antibody, human IgG1, kappa)
chain 1: QVTLKESGPALVKPTQTLTLTCTFSGFSLSTSGTCVSWIRQPPGKALEWLATICWEDSKGYNPSLKSRLTISKDTSKNQAVLTMTNMDPVDTATYYCARREDSGYFWFPYWGQGTLVTVSSASTKGPSVFPLAPSSKSTSGGTAALGCLVKDYFPEPVTVSWNSGALTSGVHTFPAVLQSSGLYSLSSVVTVPSSSLGTQTYICNVNHKPSNTKVDKKVEPKSCDKTHTCPPCPAPEAAGPSVFLFPPKPKDTLMISRTPEVTCVVVDVSHEDPEVKFNWYVDGVEVHNAKTKPREEQYNSTYRVVSVLTVLHQDWLNGKEYKCKVSNKALPAPIEKTISKAKGQPREPQVYTLPPSREEMTKNQVSLWCLVKGFYPSDIAVEWESNGQPENNYKTTPPVLDSDGSFFLYSKLTVDKSRWQQGNVFSCSVMHEALHNHYTQKSLSLSPGGGGGSGGGGSGGGGSGGGGSEVQLVESGGGLVQPGGSLRLSCAASGFTFTNYGLHWVRQAPGKGLEWVSSISPSGGVTYYRDSVKGRFTISRDNSKNTLYLQMNSLRAEDTAVYYCAKPFLGWGGANWIAHWGQGTLVTVSS
chain 2: QVTLKESGPALVKPTQTLTLTCTFSGFSLSTSGTCVSWIRQPPGKALEWLATICWEDSKGYNPSLKSRLTISKDTSKNQAVLTMTNMDPVDTATYYCARREDSGYFWFPYWGQGTLVTVSSASTKGPSVFPLAPSSKSTSGGTAALGCLVKDYFPEPVTVSWNSGALTSGVHTFPAVLQSSGLYSLSSVVTVPSSSLGTQTYICNVNHKPSNTKVDKKVEPKSCDKTHTCPPCPAPEAAGPSVFLFPPKPKDTLMISRTPEVTCVVVDVSHEDPEVKFNWYVDGVEVHNAKTKPREEQYNSTYRVVSVLTVLHQDWLNGKEYKCKVSNKALPAPIEKTISKAKGQPREPQVYTLPPSREEMTKNQVSLSCAVKGFYPSDIAVEWESNGQPENNYKTTPPVLDSDGSFFLVSKLTVDKSRWQQGNVFSCSVMHEALHNRFTQKSLSLSPGGGGGSGGGGSGGGGSGGGGSDIQMTQSPSSLSASVGDRVTITCLASEDISNDLAWYQQKPGKAPKLLIYFVDRLLDGVPSRFSGSGSGTDFTLTISSLQPEDFATYYCQQSYKYPPTFGQGTKLEIK
light: NIQMTQSPSSLSASVGDRVTITCKAGQNVNNYLAWYQQKPGKAPKVLIFNANSLQTGVPSRFSGSGSGTDFTLTISSLQPEDFATYYCQQYNSWPTFGGGTKVEIKRTVAAPSVFIFPPSDEQLKSGTASVVCLLNNFYPREAKVQWKVDNALQSGNSQESVTEQDSKDSTYSLSSTLTLSKADYEKHKVYACEVTHQGLSSPVTKSFNRGEC
notes: PD-1/CD40: two PD-1 Fabs, terminal CD40 Fv (TM559)
Q: Does B2 bind (PD-1)?
A: binds

B3: Ly1963 (other)
chain 1: QVQLVQSGAEVKKPGASVKVSCKASGYTFTSYVMHWVRQKPGQGLEWIGYINPYNEGTESTDKFKGRATMTSDKSTSTVYMELSSLRSEDTAVYYCASIYYGYEGTYFGVWGQGTLVTVSSASTKGPSVFPLAPSSKSTSGGTAALGCLVKDYFPEPVTVSWNSGALTSGVHTFPAVLQSSGLYSLSSVVTVPSSSLGTQTYICNVNHKPSNTKVDKKVEPKSCGGGGSGGGGSGGGGSGGGGSEVQLVESGGGLVQPGGSLRLSCAASGFTFSTYAMNWVRQAPGKGLEWVGRIRSKYNNYATYYADSVKGRFTISRDDSKNSLYLQMNSLKTEDTAVYYCVRHGNFGNSYVSWFAYWGQGTLVTVSSGGGGSDKTHTCPPCPAPEAAGPSVFLFPPKPKDTLMISRTPEVTCVVVDVSHEDPEVKFNWYVDGVEVHNAKTKPREEQYNSTYRVVSVLTVLHQDWLNGKEYKCKVSNKALPAPIEKTISKAKGQPREPQVYTLPPSREEMTKNQVSLWCLVKGFYPSDIAVEWESNGQPENNYKTTPPVLDSDGSFFLYSKLTVDKSRWQQGNVFSCSVMHEALHNHYTQKSLSLSPGGGGGSGGGGSGGGGSGGGGSQVQLVQSGAEVKKPGASVKVSCKASGYTFAGFEMHWVRQAPGQGLEWMGAIDPKTGGTDYNQKFKDRVTMTRDTSISTAYMELSRLRSDDTAVYYCARDLGYFDVWGQGTLVTVSS
chain 2: QVQLVQSGAEVKKPGASVKVSCKASGYTFTSYVMHWVRQKPGQGLEWIGYINPYNEGTESTDKFKGRATMTSDKSTSTVYMELSSLRSEDTAVYYCASIYYGYEGTYFGVWGQGTLVTVSSASTKGPSVFPLAPSSKSTSGGTAALGCLVKDYFPEPVTVSWNSGALTSGVHTFPAVLQSSGLYSLSSVVTVPSSSLGTQTYICNVNHKPSNTKVDKKVEPKSCGGGGSGGGGSGGGGSGGGGSQAVVTQEPSLTVSPGGTVTLTCRSSTGAVTTSNYANWVQQKPGQAPRGLIGGTNKRAPWTPARFSGSLLGGKAALTITGAQAEDEADYYCALWYSNLWVFGGGTKLTVLGGGGSDKTHTCPPCPAPEAAGPSVFLFPPKPKDTLMISRTPEVTCVVVDVSHEDPEVKFNWYVDGVEVHNAKTKPREEQYNSTYRVVSVLTVLHQDWLNGKEYKCKVSNKALPAPIEKTISKAKGQPREPQVYTLPPSREEMTKNQVSLSCAVKGFYPSDIAVEWESNGQPENNYKTTPPVLDSDGSFFLVSKLTVDKSRWQQGNVFSCSVMHEALHNHYTQKSLSLSPGGGGGSGGGGSGGGGSGGGGSDIQMTQSPSSLSASVGDRVTITCRASQDIRSNLNWYQQKPGGAVKLLIYYTSRLHSGVPSRFSGSGSGTDYTLTISSLQPEDFATYFCQQSEKLPRTFGGGTKVEIR
light: EIVLTQSPATLSLSPGERATLSCRASSSVSYMHWYQQKPGQAPRPWIYATSNLASGIPARFSGSRSGTDYTLTISSLEPEDFAVYYCQQWSSNTLTFGGGTKVEIKRTVAAPSVFIFPPSDEQLKSGTASVVCLLNNFYPREAKVQWKVDNALQSGNSQESVTEQDSKDSTYSLSSTLTLSKADYEKHKVYACEVTHQGLSSPVTKSFNRGEC
Q: Does B3 bind (B7H3)?
A: binds

Q: Does B3 bind (CD137)?
A: binds

B4: Ly2122 (bispecific antibody, human IgG1, kappa)
chain 1: QVQLVQSGAEVKKPGASVKVSCKASGYTFTSYVMHWVRQKPGQGLEWIGYINPYNEGTESTDKFKGRATMTSDKSTSTVYMELSSLRSEDTAVYYCASIYYGYEGTYFGVWGQGTLVTVSSASTKGPSVFPLAPSSKSTSGGTAALGCLVKDYFPEPVTVSWNSGALTSGVHTFPAVLQSSGLYSLSSVVTVPSSSLGTQTYICNVNHKPSNTKVDKKVEPKSCDKTHTCPPCPAPEAAGPSVFLFPPKPKDTLMISRTPEVTCVVVDVSHEDPEVKFNWYVDGVEVHNAKTKPREEQYNSTYRVVSVLTVLHQDWLNGKEYKCKVSNKALPAPIEKTISKAKGQPREPQVYTLPPSREEMTKNQVSLWCLVKGFYPSDIAVEWESNGQPENNYKTTPPVLDSDGSFFLYSKLTVDKSRWQQGNVFSCSVMHEALHNHYTQKSLSLSPGGGGGSGGGGSGGGGSGGGGSQVQLVQSGAEVKKPGASVKVSCKASGYTFAGFEMHWVRQAPGQGLEWMGAIDPKTGGTDYNQKFKDRVTMTRDTSISTAYMELSRLRSDDTAVYYCARDLGYFDVWGQGTLVTVSS
chain 2: QVQLVQSGAEVKKPGASVKVSCKASGYTFTSYVMHWVRQKPGQGLEWIGYINPYNEGTESTDKFKGRATMTSDKSTSTVYMELSSLRSEDTAVYYCASIYYGYEGTYFGVWGQGTLVTVSSASTKGPSVFPLAPSSKSTSGGTAALGCLVKDYFPEPVTVSWNSGALTSGVHTFPAVLQSSGLYSLSSVVTVPSSSLGTQTYICNVNHKPSNTKVDKKVEPKSCDKTHTCPPCPAPEAAGPSVFLFPPKPKDTLMISRTPEVTCVVVDVSHEDPEVKFNWYVDGVEVHNAKTKPREEQYNSTYRVVSVLTVLHQDWLNGKEYKCKVSNKALPAPIEKTISKAKGQPREPQVYTLPPSREEMTKNQVSLSCAVKGFYPSDIAVEWESNGQPENNYKTTPPVLDSDGSFFLVSKLTVDKSRWQQGNVFSCSVMHEALHNRFTQKSLSLSPGGGGGSGGGGSGGGGSGGGGSDIQMTQSPSSLSASVGDRVTITCRASQDIRSNLNWYQQKPGGAVKLLIYYTSRLHSGVPSRFSGSGSGTDYTLTISSLQPEDFATYFCQQSEKLPRTFGGGTKVEIR
light: EIVLTQSPATLSLSPGERATLSCRASSSVSYMHWYQQKPGQAPRPWIYATSNLASGIPARFSGSRSGTDYTLTISSLEPEDFAVYYCQQWSSNTLTFGGGTKVEIKRTVAAPSVFIFPPSDEQLKSGTASVVCLLNNFYPREAKVQWKVDNALQSGNSQESVTEQDSKDSTYSLSSTLTLSKADYEKHKVYACEVTHQGLSSPVTKSFNRGEC
notes: B7H3/CD137: two B7H3 Fabs, terminal CD137 Fv
Q: Does B4 bind (B7H3)?
A: binds

Q: Does B4 bind (CD137)?
A: binds
